Molecular target: human PRDX4 present on the cell surface of cancer cells (human) (UniProt Q13162)
Test: flow cytometry on ES-2 cells, control staining

UniProt Q13162, sequence (Q13162 38-271 limits assumed): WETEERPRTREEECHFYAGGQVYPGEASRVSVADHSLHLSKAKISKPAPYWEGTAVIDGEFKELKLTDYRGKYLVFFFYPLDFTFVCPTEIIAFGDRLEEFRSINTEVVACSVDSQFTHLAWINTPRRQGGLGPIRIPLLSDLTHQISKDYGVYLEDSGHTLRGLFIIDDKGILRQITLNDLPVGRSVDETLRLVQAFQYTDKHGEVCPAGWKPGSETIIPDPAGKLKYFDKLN

mean (flow cytometry): 159
Substance: isotype antibody

Reference: patent US20240050475A1
